The supplement of paper PMC10567573

B1: KLHL12 (parent)
chain: LDYTADEDGVWYSVAPMNVRRGLA
B2: SLC25A39 (parent)
chain: LTSDLYAPMVAGALARLGTVTVIS

Variants of: B1
Test: protein stability index of a GFP-peptide fusion (GPS, HEK-293T) (PSI 1-6); higher = more stable
Conditions: c terminus: a fixed tail appended
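Note: lentivirally expressed fusions sorted by FACS into six bins by GFP to DsRed ratio, PSI derived from sequencing read proportions per bin multiplied by bin number.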

Variant | protein stability index
N18S | 2.01
N18V | 2.35
N18I | 2.47
N18Y | 2.24
N18M | 1.46
N18A | 1.92
N18W | 2.37
N18D | 2.2
N18P | 2.57
N18Q | 1.58
N18E | 1.83
N18H | 1.95
N18T | 1.77
N18C | 1.35
N18K | 1.54
N18G | 2.54
N18F | 2.19
N18L | 1.97
Y12L | 2.02
Y12C | 3.07
Y12P | 3.52
Y12V | 2.32
Y12T | 3.12
Y12K | 3.63

Variant | protein stability index
Y12E | 4.04
Y12Q | 3.61
Y12N | 3.45
Y12A | 3.55
Y12H | 3.24
Y12D | 3.74
Y12M | 2.36
Y12I | 1.89
Y12R | 3.37
Y12W | 2.3
Y12S | 3.12
Y12F | 2.23
Y12G | 2.84
R21E | 2.21
R21L | 2.93
R21G | 1.78
R21W | 1.71
R21T | 2.72
R21D | 1.88
R21Q | 1.71
R21M | 1.32
R21V | 2.19
R21I | 2.04
R21S | 1.72

Variant | protein stability index
R21A | 2.39
R21N | 1.65
R21K | 1.8
R21F | 2.85
R21Y | 1.47
R21H | 1.75
R21C | 2.63
R21P | 1.8
A24M | 1.75
A24Y | 2.39
A24D | 1.82
A24F | 2.2
A24K | 2.35
A24G | 2.17
A24N | 2.25
A24W | 2.46
A24R | 1.97
A24P | 2.24
A24C | 1.77
A24H | 2.13
A24L | 2.77
A24E | 1.87
A24S | 2.17
A24V | 2.26

Variant | protein stability index
A24T | 2.11
A24Q | 2.03
A24I | 1.88
V10P | 2.47
V10I | 1.84
V10Q | 2.99
V10D | 3.36
V10H | 2.44
V10S | 2.2
V10T | 2.82
V10L | 3.09
V10N | 3.06
V10M | 2.32
V10Y | 2.44
V10G | 3.38
V10R | 2.7
V10K | 3.18
V10E | 3.37
V10F | 1.86
V10W | 1.63
A15Y | 2.04
A15S | 1.83
A15P | 2.76
A15W | 1.57

Variant | protein stability index
A15Q | 2.24
A15K | 2.13
A15D | 2.32
A15R | 2.19
A15G | 2.06
A15M | 1.76
A15N | 2.33
A15H | 1.7
A15C | 1.74
A15V | 1.76
A15F | 1.82
A15E | 2.29
A15I | 1.76
A15T | 2.04
A15L | 2.08
R20Q | 1.89
R20P | 1.81
R20W | 2.05
R20H | 1.75
R20Y | 1.97
R20I | 1.98
R20T | 2.69
R20K | 1.89
R20N | 1.74

Variant | protein stability index
R20G | 1.72
R20E | 3.32
R20F | 1.7
R20S | 2.31
R20M | 2.4
R20C | 1.54
R20V | 2.49
R20A | 2.1
R20L | 2.26
R20D | 2.65
L23W | 1.37
L23Q | 2.9
L23G | 2.29
L23E | 2.41
L23R | 2.82
L23T | 2.19
L23A | 2.68
L23Y | 1.99
L23I | 1.74
L23K | 2
L23F | 1.83
L23D | 2.46
L23M | 2.38
L23H | 2.28

Variant | protein stability index
L23C | 1.93
L23V | 1.79
L23S | 2.66
L23N | 2.77
L23P | 2.35
P16Q | 2.16
P16L | 2.41
P16C | 1.72
P16W | 1.59
P16T | 2.62
P16F | 1.84
P16V | 1.85
P16M | 1.88
P16K | 1.95
P16A | 2.33
P16Y | 2.56
P16G | 2.08
P16S | 1.79
P16H | 2.57
P16N | 2.24
P16E | 3.28
P16D | 3.07
P16R | 2.25
P16I | 1.79

Variant | protein stability index
V19L | 2.22
V19S | 2.62
V19Q | 2.49
V19M | 1.52
V19I | 2.42
V19D | 2.32
V19P | 2.11
V19A | 1.93
V19Y | 1.78
V19C | 1.7
V19G | 1.95
V19F | 1.78
V19W | 1.66
V19T | 1.91
V19E | 1.86
V19N | 2.72
V19K | 2.65
V19R | 2.61
V19H | 2.98
S13Y | 2.21
S13A | 1.71
S13M | 1.92
S13E | 2.77
S13V | 2.28

Variant | protein stability index
S13W | 1.37
S13G | 2.69
S13N | 2.13
S13T | 1.92
S13L | 1.89
S13I | 1.43
S13P | 2.57
S13C | 1.97
S13H | 3.65
S13D | 3.34
S13K | 2.29
S13R | 1.94
S13F | 2.6
S13Q | 2.06
M17F | 1.55
M17I | 3.28
M17N | 2.54
M17W | 1.89
M17R | 3.34
M17P | 2.58
M17G | 2.28
M17E | 2.59
M17C | 2.01
M17A | 2.45

Variant | protein stability index
M17Y | 1.86
M17D | 2.47
M17V | 2.59
M17L | 1.74
M17S | 2.64
M17K | 2.71
M17H | 2.41
M17Q | 2.46
M17T | 2.48
W11P | 3.56
W11N | 3.97
W11F | 2.85
W11L | 3.21
W11I | 2.61
W11K | 3.18
W11H | 3.05
W11Y | 2.39
W11C | 3.05
W11M | 2.72
W11Q | 3.38
W11E | 4.55
W11D | 4.35
W11R | 2.8
W11G | 3.69

Variant | protein stability index
W11T | 2.99
W11S | 3.62
W11A | 3.86
W11V | 3.62
V14R | 3.33
V14E | 3.61
V14D | 3.79
V14H | 3.39
V14W | 2
V14S | 2.96
V14M | 2.33
V14C | 2.5
V14L | 1.82
V14I | 1.67
V14T | 3
V14K | 4.17
V14G | 2.83
V14A | 2.76
V14Y | 2.83
V14P | 2.63
V14F | 2.18
V14Q | 3.31
V14N | 2.83
G22V | 1.35

Variant | protein stability index
G22Y | 2.17
G22Q | 2.22
G22A | 1.5
G22T | 2.31
G22P | 2.21
G22E | 2.17
G22W | 1.48
G22L | 2
G22F | 1.51
G22S | 1.72
G22K | 2.23
G22M | 1.95
G22N | 1.62
G22H | 1.56
G22R | 2.15
G22D | 1.79
G22I | 2.16
G22C | 2.27

Variants of: B2
Test: as above
Conditions: c terminus: a fixed tail appended

Variant | protein stability index
T2Q | 2.49
T2H | 2.88
T2E | 2.15
T2N | 2.52
T2S | 2.68
T2G | 3.56
T2K | 1.57
T2W | 1.61
T2Y | 4.43
T2A | 3.92
T2D | 2.1
T2C | 4.26
T2M | 3.56
D4R | 3.25
D4V | 3.22
D4P | 2.89
D4Q | 2.88
D4W | 3.9
D4C | 4.74
D4T | 2.84
D4S | 2.07
L1T | 1.75
L1K | 2.83
L1V | 1.88
L1G | 2.72
L1H | 2.01

Variant | protein stability index
L1N | 2.77
L1E | 2.24
L1C | 2.18
L1M | 2.2
L1D | 1.76
L1P | 1.62
L1I | 1.96
L1A | 3.53
L1Q | 1.84
L1S | 1.41
S3I | 2.51
S3H | 2.4
S3G | 3.59
S3T | 1.38
S3Y | 2.41
S3D | 2.96
S3F | 3.67
S3V | 3.21
S3L | 3.13
S3M | 2.73
S3A | 2.75
S3R | 2.83
S3K | 1.13
S3Q | 1.86
S3N | 1.56
S3P | 1.35
